In IntAct's records for PubMed 29039417:

B1: BBSome complex member BBS4 (Homo sapiens), Q96RK4 (parent)
chain: MAEERVATRTQFPVSTESQKPRQKKAPEFPILEKQNWLIHLHYIRKDYEACKAVIKEQLQETQGLCEYAIYVQALIFRLEGNIQESLELFQTCAVLSPQSADNLKQVARSLFLLGKHKAAIEVYNEAAKLNQKDWEISHNLGVCYIYLKQFNKAQDQLHNALNLNRHDLTYIMLGKIHLLEGDLDKAIEVYKKAVEFSPENTELLTTLGLLYLQLGIYQKAFEHLGNALTYDPTNYKAILAAGSMMQTHGDFDVALTKYRVVACAVPESPPLWNNIGMCFFGKKKYVAAISCLKRANYLAPFDWKILYNLGLVHLTMQQYASAFHFLSAAINFQPKMGELYMLLAVALTNLEDIENAKRAYAEAVHLDKCNPLVNLNYAVLLYNQGEKKNALAQYQEMEKKVSLLKDNSSLEFDSEMVEMAQKLGAALQVGEALVWTKPVKDPKSKHQTTSTSKPASFQQPLGSNQALGQAMSSAAAYRTLPSGAGGTSQFTKPPSLPLEPEPAVESSPTETSEQIREK
partner: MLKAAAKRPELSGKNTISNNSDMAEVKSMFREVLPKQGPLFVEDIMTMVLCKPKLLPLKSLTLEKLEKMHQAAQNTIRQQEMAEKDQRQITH

Variants of: B1
Conditions: with bbip1_human BBIP1, A8MTZ0

| Variant | effect of a mutation on the interaction |
| --- | --- |
| L351A | with no effect |
| A360E | with no effect |
| K294A | with no effect |
| L307K | with no effect |
| Y341C | disrupting interaction strength |
| Y341E | with no effect |
| Q318K | with no effect |
| A347E | with no effect |
| P335E | with no effect |
| N377E | with no effect |
| A345T | disrupting interaction strength |
| L299K | with no effect |
| K336E | with no effect |
| L343P | disrupting interaction strength |
| G277E | with no effect |
| L327A | with no effect |
| G282E | with no effect |
| K284E | with no effect |
| K284A | with no effect |
| M342A | with no effect |
| A379E | with no effect |
| E339A | with no effect |

| Variant | effect of a mutation on the interaction |
| --- | --- |
| E339K | with no effect |
| R295A | with no effect |
| G386E | with no effect |
| M278L | disrupting interaction strength |
| E355K | with no effect |
| A289K | with no effect |
| M337K | with no effect |
| Y320K | with no effect |
| K283A | with no effect |
| C292R | disrupting interaction strength |
| N309A | with no effect |
| F281A | with no effect |
| L381P | disrupting interaction strength |
| P301A | with no effect |
| P301S | disrupting interaction strength |
| D353G | disrupting interaction strength |
| W304E | with no effect |
| L376A | with no effect |
| L376P | disrupting interaction strength |
| L373K | with no effect |
| L373A | with no effect |
| L312E | with no effect |

The remaining lines, values ahead:

| effect of a mutation on the interaction | Variant |
| --- | --- |
| with no effect | E502A |
| with no effect | P455A |
| with no effect | M472K |
| with no effect | Q459A |
| with no effect | L428K |
| with no effect | A477K |
| with no effect | E419K |
| with no effect | G487K |
| with no effect | G487E |
| with no effect | L411A |
| with no effect | T437K |
| with no effect | A471E |
| with no effect | S496K |
| with no effect | D414E |
| with no effect | P439A |
| with no effect | Q429K |
| with no effect | Q429E |
| with no effect | L499A |
| with no effect | R517K |
| with no effect | P501E |
| with no effect | L468E |
| with no effect | E514K |
| with no effect | E514A |

| effect of a mutation on the interaction | Variant |
| --- | --- |
| with no effect | P482K |
| with no effect | T450A |
| with no effect | F491A |
| with no effect | K519E |
| with no effect | Q448K |
| with no effect | Q448A |
| with no effect | S457E |
| with no effect | I516A |
| disrupting interaction strength | Q394R |
| with no effect | Q422A |
| with no effect | Q422K |
| with no effect | H447K |
| with no effect | L404K |
| with no effect | G486A |
| with no effect | F413A |
| with no effect | S453A |
| with no effect | M417K |
| with no effect | T512E |
| with no effect | P495K |
| with no effect | A467K |
| with no effect | L481A |
| with no effect | S483E |
